Experimental data reported in the supplement of paper PMC10567573.

B1: IQUB (parent)
chain: KIREKEEWIKLDYHRRHNPKTNED
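Note: lentivirally expressed fusions sorted by FACS into six bins by GFP to DsRed ratio, PSI derived from sequencing read proportions per bin multiplied by bin number.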

Variants of: B1
Assay: protein stability index of a GFP-peptide fusion (GPS, HEK-293T) (PSI 1-6); higher = more stable
Conditions: c terminus: a fixed tail appended
Variant KIREKEEWIKLDYERRHNPKTNED [H14E] has a protein stability index of 3.72. KIREKEEWIKLDYQRRHNPKTNED [H14Q] showed a protein stability index of 5.02. In the case of KIREKEEWIKLDYCRRHNPKTNED [H14C], the protein stability index is reported as 4.46. With KIREKEEWIKLDYDRRHNPKTNED [H14D] the protein stability index was 5.35. In the case of KIREKEEWIKLDYSRRHNPKTNED [H14S], the protein stability index is reported as 4.61. For KIREKEEWIKLDYNRRHNPKTNED [H14N], the protein stability index was 4.89. For KIREKEEWIKLDYARRHNPKTNED [H14A], the protein stability index was 4.8. For KIREKEEWIKLDYFRRHNPKTNED [H14F], the protein stability index was 4.34. With KIREKEEWIKLDYGRRHNPKTNED [H14G] the protein stability index was 4.88. For KIREKEEWIKLDYVRRHNPKTNED [H14V], the protein stability index was 4.24. KIREKEEWIKLDYTRRHNPKTNED [H14T] showed a protein stability index of 4.5. In the case of KIREKEEWIKLDYYRRHNPKTNED [H14Y], the protein stability index is reported as 4.41. Work on KIREKEEWIKLDYIRRHNPKTNED [H14I] yielded a protein stability index of 4.58. KIREKEEWIKLDYRRRHNPKTNED [H14R] gave a protein stability index of 4.58. KIREKEEWIKLDYWRRHNPKTNED [H14W] gave a protein stability index of 3.73. Work on KIREKEEWIKLDYPRRHNPKTNED [H14P] yielded a protein stability index of 4.51. For KIREKEEWIKLDYLRRHNPKTNED [H14L], the protein stability index was 4.1. KIREKEEWIKLDYKRRHNPKTNED [H14K] gave a protein stability index of 3.87. Work on KIREKEEWIKLDYHRRHPPKTNED [N18P] yielded a protein stability index of 4.89. For KIREKEEWIKLDYHRRHSPKTNED [N18S], the protein stability index was 4.91. Variant KIREKEEWIKLDYHRRHYPKTNED [N18Y] has a protein stability index of 3.71. Work on KIREKEEWIKLDYHRRHEPKTNED [N18E] yielded a protein stability index of 4.48. KIREKEEWIKLDYHRRHQPKTNED [N18Q] gave a protein stability index of 3.97. In the case of KIREKEEWIKLDYHRRHCPKTNED [N18C], the protein stability index is reported as 3.99. With KIREKEEWIKLDYHRRHDPKTNED [N18D] the protein stability index was 4.86. KIREKEEWIKLDYHRRHGPKTNED [N18G] gave a protein stability index of 4.93. In the case of KIREKEEWIKLDYHRRHKPKTNED [N18K], the protein stability index is reported as 4.46. In the case of KIREKEEWIKLDYHRRHRPKTNED [N18R], the protein stability index is reported as 4.31. For KIREKEEWIKLDYHRRHTPKTNED [N18T], the protein stability index was 4.27. With KIREKEEWIKLDYHRRHFPKTNED [N18F] the protein stability index was 4. With KIREKEEWIKLDYHRRHAPKTNED [N18A] the protein stability index was 4.32. Variant KIREKEEWIKLDYHRRHMPKTNED [N18M] has a protein stability index of 4.42. KIREKEEWIKLDYHRRHVPKTNED [N18V] showed a protein stability index of 4.32. Variant KIREKEEWIKLDYHRRHHPKTNED [N18H] has a protein stability index of 4.27. With KIREKEEWIKLDYHRRHLPKTNED [N18L] the protein stability index was 3.79. KIREKEEWIKLDYHRRHIPKTNED [N18I] showed a protein stability index of 4.19. Variant KIREKEEWIKLDYHRRHNDKTNED [P19D] has a protein stability index of 4.77. Variant KIREKEEWIKLDYHRRHNMKTNED [P19M] has a protein stability index of 4.71. KIREKEEWIKLDYHRRHNEKTNED [P19E] showed a protein stability index of 4.65. In the case of KIREKEEWIKLDYHRRHNLKTNED [P19L], the protein stability index is reported as 3.91. KIREKEEWIKLDYHRRHNWKTNED [P19W] showed a protein stability index of 4.33. Variant KIREKEEWIKLDYHRRHNTKTNED [P19T] has a protein stability index of 4.49. In the case of KIREKEEWIKLDYHRRHNYKTNED [P19Y], the protein stability index is reported as 4.06. Work on KIREKEEWIKLDYHRRHNHKTNED [P19H] yielded a protein stability index of 4.3. Work on KIREKEEWIKLDYHRRHNKKTNED [P19K] yielded a protein stability index of 4.95. For KIREKEEWIKLDYHRRHNGKTNED [P19G], the protein stability index was 4.46. KIREKEEWIKLDYHRRHNIKTNED [P19I] gave a protein stability index of 4.92. In the case of KIREKEEWIKLDYHRRHNQKTNED [P19Q], the protein stability index is reported as 4.68. KIREKEEWIKLDYHRRHNCKTNED [P19C] gave a protein stability index of 4.61. KIREKEEWIKLDYHRRHNAKTNED [P19A] showed a protein stability index of 4.59. For KIREKEEWIKLDYHRRHNNKTNED [P19N], the protein stability index was 5.13. For KIREKEEWIKLDYHRRHNSKTNED [P19S], the protein stability index was 4.99. In the case of KIREKEEWIKLDYHRNHNPKTNED [R16N], the protein stability index is reported as 4.91. Variant KIREKEEWIKLDYHRLHNPKTNED [R16L] has a protein stability index of 3.86. With KIREKEEWIKLDYHRAHNPKTNED [R16A] the protein stability index was 4.54. Variant KIREKEEWIKLDYHRHHNPKTNED [R16H] has a protein stability index of 4.4. In the case of KIREKEEWIKLDYHRYHNPKTNED [R16Y], the protein stability index is reported as 4.31. KIREKEEWIKLDYHRDHNPKTNED [R16D] gave a protein stability index of 3.61. Variant KIREKEEWIKLDYHRFHNPKTNED [R16F] has a protein stability index of 3.7. For KIREKEEWIKLDYHRCHNPKTNED [R16C], the protein stability index was 4.52. Work on KIREKEEWIKLDYHRIHNPKTNED [R16I] yielded a protein stability index of 4.38. Work on KIREKEEWIKLDYHRKHNPKTNED [R16K] yielded a protein stability index of 3.6. Work on KIREKEEWIKLDYHREHNPKTNED [R16E] yielded a protein stability index of 5.2. KIREKEEWIKLDYHRGHNPKTNED [R16G] showed a protein stability index of 4.74. In the case of KIREKEEWIKLDYHRSHNPKTNED [R16S], the protein stability index is reported as 5.12. KIREKEEWIKLDYHRPHNPKTNED [R16P] gave a protein stability index of 4.75. KIREKEEWIKLDYHRTHNPKTNED [R16T] showed a protein stability index of 4.94. Variant KIREKEEWIKLDYHRWHNPKTNED [R16W] has a protein stability index of 4.22. KIREKEEWIKLDYHRQHNPKTNED [R16Q] showed a protein stability index of 5.08. In the case of KIREKEEWIKLDYHRMHNPKTNED [R16M], the protein stability index is reported as 4.63. Work on KIREKEEWIKLDYHRVHNPKTNED [R16V] yielded a protein stability index of 3.62. Variant KIREKEEWYKLDYHRRHNPKTNED [I9Y] has a protein stability index of 4.73. In the case of KIREKEEWIKLDNHRRHNPKTNED [Y13N], the protein stability index is reported as 5.41. For KIREKEEWIKLDAHRRHNPKTNED [Y13A], the protein stability index was 4.36. KIREKEEWIKLDMHRRHNPKTNED [Y13M] showed a protein stability index of 4.76. Variant KIREKEEWIKLDQHRRHNPKTNED [Y13Q] has a protein stability index of 5.04. Work on KIREKEEWIKLDKHRRHNPKTNED [Y13K] yielded a protein stability index of 5.3. In the case of KIREKEEWIKLDSHRRHNPKTNED [Y13S], the protein stability index is reported as 5.11. KIREKEEWIKLDCHRRHNPKTNED [Y13C] gave a protein stability index of 4.33. With KIREKEEWIKLDRHRRHNPKTNED [Y13R] the protein stability index was 5.28. For KIREKEEWIKLDVHRRHNPKTNED [Y13V], the protein stability index was 4.64. KIREKEEWIKLDDHRRHNPKTNED [Y13D] gave a protein stability index of 5.04. KIREKEEWIKLDWHRRHNPKTNED [Y13W] gave a protein stability index of 4.18. With KIREKEEWIKLDEHRRHNPKTNED [Y13E] the protein stability index was 5.18. KIREKEEWIKLDHHRRHNPKTNED [Y13H] gave a protein stability index of 4.87. KIREKEEWIKLDTHRRHNPKTNED [Y13T] gave a protein stability index of 4.49. Variant KIREKEEWIKLDFHRRHNPKTNED [Y13F] has a protein stability index of 4.51. KIREKEEWIKLDIHRRHNPKTNED [Y13I] gave a protein stability index of 3.95. With KIREKEEWIKLDGHRRHNPKTNED [Y13G] the protein stability index was 4.99. KIREKEEWIKLDLHRRHNPKTNED [Y13L] showed a protein stability index of 4.8. Variant KIREKEEWIKLDPHRRHNPKTNED [Y13P] has a protein stability index of 4.51. KIREKEEWIKLDYHRRHNPATNED [K20A] showed a protein stability index of 4.52. KIREKEEWIKLDYHRRHNPDTNED [K20D] showed a protein stability index of 4.65. KIREKEEWIKLDYHRRHNPCTNED [K20C] showed a protein stability index of 4.27.
